Test results taken from FireProtDB (doi:10.1110/ps.8.4.832).

Conditions: Aspergillus oryzae (strain ATCC 42149 / RIB 40), Thermal, whole UniProt chain shown
[1] = pH 1.1, DSC, glycine-HCl 0.1 M/0.1 M, NaCl 0.1 M, reversible: yes(77%)
[2] = pH 1.5, DSC, glycine-HCl 0.1 M/0.1 M, NaCl 0.1 M, reversible: yes(99%)
[3] = pH 2, DSC, glycine-HCl 0.1 M/0.1 M, NaCl 0.1 M, reversible: yes(80%)
[4] = pH 3, DSC, glycine-HCl 0.1 M/0.1 M, NaCl 0.1 M, reversible: yes(80%)
[5] = pH 7, DSC, None, reversible: yes(26%)

B1: Guanyl-specific ribonuclease T1 wild type, P00651 (protein)
chain: MMYSKLLTLTTLLLPTALALPSLVERACDYTCGSNCYSSSDVSTAQAAGYQLHEDGETVGSNSYPHKYNNYEGFDFSVSSPYYEWPILSSGDVYSGGSPGADRVVFNENNQLAGVITHTGASGNNFVECT
Tm (pH 1.1, Absorbance, glycine-HCl 0.1 M/0.1 M, NaCl 0.1 M, reversible: yes(77%)): 25.9 °C
Tm [1]: 28.2 °C
unfolding enthalpy (calorimetric) [1]: 43.3 kcal/mol
unfolding enthalpy (van 't Hoff) [1]: 55.7 kcal/mol
Tm [2]: 32.3 °C
unfolding enthalpy (calorimetric) [2]: 47.6 kcal/mol
unfolding enthalpy (van 't Hoff) [2]: 60.5 kcal/mol
Tm (pH 2, Absorbance, glycine-HCl 0.1 M/0.1 M, NaCl 0.1 M, reversible: yes(80%)): 33 °C
Tm [3]: 37 °C
unfolding enthalpy (calorimetric) [3]: 68.9 kcal/mol
unfolding enthalpy (van 't Hoff) [3]: 66.3 kcal/mol
Tm (pH 3, Absorbance, glycine-HCl 0.1 M/0.1 M, NaCl 0.1 M, reversible: yes(80%)): 46.1 °C
Tm [4]: 50.2 °C
unfolding enthalpy (calorimetric) [4]: 95.7 kcal/mol
unfolding enthalpy (van 't Hoff) [4]: 93.1 kcal/mol
Tm (pH 3.5, Absorbance, glycine-HCl 0.1 M/0.1 M, NaCl 0.1 M, reversible: yes(73%)): 52.7 °C
Tm (pH 7, Absorbance, None, reversible: yes(26%)): 62.8 °C
Tm [5]: 64.4 °C
unfolding enthalpy (calorimetric) [5]: 123 kcal/mol
unfolding enthalpy (van 't Hoff) [5]: 116 kcal/mol
